± gives the standard error. Fewer inactive variants are shown than the library holds.
B1: glmS ribozyme (parent)
chain: AUAAAAGCGCCAGAACUACAGAAAUGUAGUUGACGAGGAGGAGGUUUAUCGAAUUUUCGGCGGAUGCCUCCAAA

Legend:
Conditions in all cases: with glucosamine-6-phosphate
[1] = variants of: B1; experiment: self-cleavage kobs at 40 uM GlcN6P; higher = faster cleavage; RNA array
Procedure, shortened: (§1)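 Tracking of barcoded ribozyme variants used a hybridised Cy3 probe at 37 °C, after in situ transcription by E. coli RNA polymerase on sequenced MiSeq chips. The flowed solution held 40 μM to 10 mM glucosamine-6-phosphate in HEPES/KCl/Mg(OAc)2 buffer, and imaging ran over ~14 h. kobs was taken from exponential decay fits of normalised per-tile medians, and kcat and KM from weighted Michaelis–Menten fits.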

[2] = variants of: B1; experiment: self-cleavage kobs at 160 uM GlcN6P; higher = faster cleavage; RNA array
Procedure, shortened: as §1

[3] = variants of: B1; experiment: self-cleavage kobs at 10000 uM GlcN6P; higher = faster cleavage; RNA array
Procedure, shortened: as §1

[4] = variants of: B1; experiment: self-cleavage kobs at 640 uM GlcN6P; higher = faster cleavage; RNA array
Procedure, shortened: as §1

[5] = variants of: B1; experiment: self-cleavage kobs at 2500 uM GlcN6P; higher = faster cleavage; RNA array
Procedure, shortened: as §1

Variant | self-cleavage kobs at 40 uM GlcN6P [1] [s⁻¹] | self-cleavage kobs at 160 uM GlcN6P [2] [s⁻¹] | self-cleavage kobs at 10000 uM GlcN6P [3] [s⁻¹] | self-cleavage kobs at 640 uM GlcN6P [4] [s⁻¹] | self-cleavage kobs at 2500 uM GlcN6P [5] [s⁻¹]
U31C G60U | < 1e-05 | < 1e-05 | < 1e-05 | – | –
G29U A48C G63U | < 1e-05 | – | < 1e-05 | – | –
G37C U57A | < 1e-05 | – | < 1e-05 | < 1e-05 | –
C8G U30G G60A | < 1e-05 | – | < 1e-05 | – | –
U46A C50G | < 1e-05 | – | < 1e-05 | – | < 1e-05
A39G G40A A53C | 3.7e-05 ± 1.8e-05 | – | 0.00139 ± 0.00041 | – | –
A6G C16G C67G | < 1e-05 | – | – | – | –
C11A A12C G32U C50G | 0.000123 ± 3.9e-05 | – | 0.000269 ± 6.1e-05 | – | –
C8G A48U C71G | < 1e-05 | – | < 1e-05 | – | –
G41A C50A C67G | < 1e-05 | – | < 1e-05 | – | –
G9C U45G | < 1e-05 | < 1e-05 | – | < 1e-05 | < 1e-05
G13C C34A | < 1e-05 | – | < 1e-05 | < 1e-05 | –
G41U G63A | < 1e-05 | – | < 1e-05 | < 1e-05 | < 1e-05
G7C U47C A64U | < 1e-05 | – | < 1e-05 | – | –
G40C G41C | < 1e-05 | – | 6.89e-05 ± 1.3e-05 | – | –
C8A A39C | < 1e-05 | < 1e-05 | < 1e-05 | < 1e-05 | –
A48U C61A C67U | < 1e-05 | – | < 1e-05 | – | < 1e-05
A42G U69A | 0.000758 ± 0.00012 | 0.000231 ± 0.00011 | – | 0.00094 ± 0.00029 | 0.000947 ± 0.0003
G37U G59A | < 1e-05 | – | – | < 1e-05 | –
G35U C68G | 0.000484 ± 0.00019 | – | – | – | –
A6C G7A G40A | < 1e-05 | – | < 1e-05 | – | –
U30C G38U G43C U46G | < 1e-05 | – | < 1e-05 | < 1e-05 | –
U54G C67A | 0.000326 ± 7.1e-05 | 0.000481 ± 9.8e-05 | 0.00623 ± 0.0012 | 0.000916 ± 0.00018 | 0.00208 ± 0.00067
C11U A33C A53U U57G G60U | < 1e-05 | – | < 1e-05 | – | –
A53C G62U | < 1e-05 | < 1e-05 | < 1e-05 | – | < 1e-05

Variant | self-cleavage kobs at 40 uM GlcN6P [1] [s⁻¹] | self-cleavage kobs at 160 uM GlcN6P [2] [s⁻¹] | self-cleavage kobs at 10000 uM GlcN6P [3] [s⁻¹] | self-cleavage kobs at 640 uM GlcN6P [4] [s⁻¹] | self-cleavage kobs at 2500 uM GlcN6P [5] [s⁻¹]
U55A U56C | 0.00013 ± 2.5e-05 | 0.000191 ± 3e-05 | 0.00781 ± 0.0012 | 0.000919 ± 0.00017 | 0.00258 ± 0.00063
C16G A48G C68U | < 1e-05 | – | < 1e-05 | – | –
A14C G29A A33U | < 1e-05 | < 1e-05 | – | – | < 1e-05
G35A U45A C71A | < 1e-05 | – | – | – | –
A14G U31A A36U A64G | < 1e-05 | – | – | – | –
A48G G59U | < 1e-05 | – | – | – | –
A36G G51A A52G | < 1e-05 | – | – | – | –
C10U G35U A39U A48G | < 1e-05 | < 1e-05 | < 1e-05 | < 1e-05 | < 1e-05
C50U A64U | < 1e-05 | < 1e-05 | < 1e-05 | – | –
G9U A36U | < 1e-05 | – | < 1e-05 | < 1e-05 | –
C58U G62A | < 1e-05 | < 1e-05 | < 1e-05 | < 1e-05 | < 1e-05
C10U G43U | < 1e-05 | < 1e-05 | < 1e-05 | < 1e-05 | < 1e-05
C10A U47G G63C C68G | 9.61e-05 ± 3.8e-05 | – | – | – | –
G35U U45A C50G | < 1e-05 | – | – | – | –
G29U U30C | < 1e-05 | – | – | < 1e-05 | < 1e-05
A14C U45G A52C G63A | < 1e-05 | – | – | – | –
U30G U45A C71U | 0.000183 ± 4.7e-05 | – | 0.00282 ± 0.0011 | – | –
U57C G59U C61U | < 1e-05 | – | < 1e-05 | – | –
C34G G41A G44U A53U | < 1e-05 | – | < 1e-05 | – | –
A48U C68A | < 1e-05 | – | – | < 1e-05 | –
G43U A48G U65A G66U C70A | < 1e-05 | – | – | – | –
G35U U45A U57C C67A C68A | < 1e-05 | – | < 1e-05 | – | –
G35C U56G | < 1e-05 | < 1e-05 | < 1e-05 | < 1e-05 | < 1e-05
G21A G44U U57G C67A | < 1e-05 | – | – | – | –
A12G A15G A53C C67G | < 1e-05 | – | – | – | –

Source: the supplement of paper PMC7125110
